Earlier results as cited in patent publication US5576301A, “Low molecular growth potentiating peptides” (The Penn State Research Foundation, priority 1994, dated 1996).

B1: USDA bovine GH preparation: bovine growth hormone standard used in the tibial line bioassay (protein, UniProt P01246 27-217, looked up)
Somatotropin: AFPAMSLSGLFANAVLRAQHLHQLAADTFKEFERTYIPEGQRYSIQNTQVAFCFSETIPAPTGKNEAQQKSDLELLRISLLLIQSWLGPLQFLSRVFTNSLVFGTSDRVYEKLKDLEEGILALMRELEDGTPRAGQILKQTYDKFDTNMRSDDALLKNYGLLSCFRKDLHKTETYLRVMKCRRFGEASCAF

Assays:
[1] = system: tibial growth plate of hypophysectomized rats; settings: hormone standard
[2] = comparison values
patients = patients treated with recombinant hGH

Row | Molecule | potency of GH standard preparation [1] | also measured
1 | Kabi hGH standard: human growth hormone standard obtained from Kabi Vitrum, Sweden | 3.0 IU/mg protein | 
2 | human monomeric growth hormone: monomeric 22K human growth hormone |  | pI [2]: 5.1-5.6
3 | recombinant form of hGH: recombinant human growth hormone used in the United States to treat patients |  | patients treated that develop circulating antibodies (patients): 20~30%
4 | B1 | 1.4 IU/mg protein | 
